Measurements from patent publication US20020115592A1, “Pharmaceutical compositions containing insulin” (Provalis UK Limited, priority 1998, published 2002).

Columns and labels:
[1] = Appearance on addition of Akoline to the insulin solution; format: physicochemical; settings: Insulin 7 mg
[2] = Dissolution of insulin (optionally with aprotinin) in non-aqueous hydrophilic solvent/cosolvent; format: physicochemical; settings: Insulin 7 mg
[3] = Gly (20 μl), PEG/L-lactic (20 μl/10 mg)
[4] = Gly (20 μl), PEG/NaAc (20 μl/10 mg)
[5] = Gly (40 μl), Acetic acid (10 mg)
[6] = Gly (40 μl), L-lactic acid (10 mg)
[7] = PD (40 μl), Na-L lactate (10 mg)
[8] = PEG (25 μl), DL-lactic acid (25 μl)
[9] = PEG (50 μl), Glycerol/TEA (50 μl/10 gl)
[10] = PG (40 μl), Acetic acid (10 mg)
[11] = PG (40 μl), Caproic acid (10 mg)
[12] = PG (40 μl), Citric acid (10 mg)

Substance: Insulin
- Addition of Akoline [1, 3]: Turbid
- Addition of Akoline [1, 4]: Clear
- Addition of Akoline [1, 5]: Opaque
- Addition of Akoline [1, 6]: Turbid
- Addition of Akoline ([1]; Gly (40 μl), NaAc (10 mg)): Translucent
- Addition of Akoline ([1]; PD (20 μl), benz. SO3H (10 mg)): Clear
- Addition of Akoline ([1]; PD (40 μl), L-lactic (10 mg)): Turbid
- Addition of Akoline [1, 7]: Clear
- Addition of Akoline ([1]; PD (40 μl), NaAc (10 mg)): Clear
- Addition of Akoline ([1]; PEG (20 μl), L-lactic (10 mg)): Translucent
- Addition of Akoline ([1]; PEG (20 μl), NaAc (10 mg)): Clear
- Addition of Akoline [1, 8]: Cloudy
- Addition of Akoline ([1]; PEG (25 μl), DL-lactic acid (25 μl), (Akoline/POE)): Suspension
- Addition of Akoline ([1]; PEG (40 μl), camitine (10 mg)): Clear solution
- Addition of Akoline [1, 9]: Suspension
- Addition of Akoline [1, 10]: Translucent
- Addition of Akoline [1, 11]: Translucent
- Addition of Akoline [1, 12]: Translucent
- Soluble? [2, 3]: Yes
- Soluble? [2, 4]: Yes
- Soluble? [2, 5]: Yes
- Soluble? [2, 6]: Yes
- Soluble? ([2]; Gly (40 μl), NaAc (10 mg)): Yes
- Soluble? ([2]; PD (20 μl), benz. SO3H (10 mg)): Yes
- Soluble? ([2]; PD (40 μl), L-lactic (10 mg)): Yes
- Soluble? [2, 7]: Yes
- Soluble? ([2]; PD (40 μl), NaAc (10 mg)): Yes
- Soluble? ([2]; PEG (20 μl), L-lactic (10 mg)): Yes
- Soluble? ([2]; PEG (20 μl), NaAc (10 mg)): Yes
- Soluble? [2, 8]: Yes
- Soluble? ([2]; PEG (25 μl), DL-lactic acid (25 μl), listed as with Akoline/POE): Yes
- Soluble? ([2]; PEG (40 μl), camitine (10 mg)): Yes
- Soluble? [2, 9]: Yes
- Soluble? [2, 10]: Yes
- Soluble? [2, 11]: Yes
- Soluble? [2, 12]: Yes
